The experiment deals with human FcγR1A (human) (UniProt P12314). Kind of experiment: SPR (Biacore T200), antibody amine-coupled on CM5 (~950 RU), receptor as analyte, 25 C. (In SPR one partner is held on a chip, and binding of the other changes the refractive index at the surface.)
Chain of UniProt P12314 (P12314 16-288 limits assumed): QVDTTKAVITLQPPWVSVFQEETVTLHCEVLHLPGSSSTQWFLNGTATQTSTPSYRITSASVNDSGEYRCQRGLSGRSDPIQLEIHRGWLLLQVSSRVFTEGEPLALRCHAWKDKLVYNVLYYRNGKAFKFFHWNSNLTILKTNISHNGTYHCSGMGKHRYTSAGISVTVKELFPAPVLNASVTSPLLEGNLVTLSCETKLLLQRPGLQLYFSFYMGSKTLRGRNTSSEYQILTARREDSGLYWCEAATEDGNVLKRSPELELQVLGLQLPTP
For “DANAPA-IgG1 (D265A/N297A/P329A) anti-CD3 antibody”, the Maximum response at 100 nM hFcgammaRIA (RU) is 11 RU.

“DAPASK-IgG1 (D265A/P329A/S267K) anti-CD3 antibody”: the Maximum response at 100 nM hFcgammaRIA (RU) amounted to 13 RU.

“GADAPA-IgG1 (G237A/D265A/P329A) anti-CD3 antibody” returned a Maximum response at 100 nM hFcgammaRIA (RU) of 16 RU.

Consider “GADAPASK-IgG1 (G237A/D265A/P329A/S267K) anti-CD3 antibody”, for which the Maximum response at 100 nM hFcgammaRIA (RU) is 10 RU.

For the substance “LALAGA-IgG1 (L234A/L235A/G237A) anti-CD3 antibody”, the Maximum response at 100 nM hFcgammaRIA (RU) was 15 RU.

On to “LALAPG-IgG1 (L234A/L235A/P329G) anti-CD3 antibody”, for which the Maximum response at 100 nM hFcgammaRIA (RU) was 18 RU.

Turning to “LALASKPA-IgG1 (L234A/L235A/S267K/P329A) anti-CD3 antibody”, the Maximum response at 100 nM hFcgammaRIA (RU) turned out to be 9 RU.

The record behind these values is US20240002509A1.
